Results published in patent publication US20030211964, “Method of inhibiting pathogenicity of infectious agents” (Massachusetts Institute of Technology, published 2003).
Positions count from the first letter of the chain named.

B1: d(CG)6 (dsDNA)
DNA 1: CGCGCGCGCGCG
DNA 2: CGCGCGCGCGCG

How the values were obtained:
[1] = biological target: T1, ZαADAR1 Y177A Y177A (Homo sapiens) (UniProt P55265); test: SPR; conditions: partial bromination (stabilises Z form); Z-DNA stabilised by bromination
T1 sequence: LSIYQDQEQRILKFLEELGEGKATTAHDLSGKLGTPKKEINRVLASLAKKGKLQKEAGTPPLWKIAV

[2] = biological target: T2, ZαADAR1 Y177F Y177F (Homo sapiens) (UniProt P55265); test: SPR; conditions: partial bromination (stabilises Z form); Z-DNA stabilised by bromination
T2 sequence: T1 sequence with A45F

[3] = biological target: T3, Zα domain of ADAR1 (hZαADAR1) (Homo sapiens) (UniProt P55265); test: SPR; conditions: partial bromination (stabilises Z form); Z-DNA stabilised by bromination
T3 sequence: T1 sequence with A45Y

ZαADAR1 E171A = biological target: T4, ZαADAR1 E171A (Homo sapiens, UniProt P55265 SEQ:1-67, E171A); test: CD at 255 nm; rate comparable to wild type
T4 sequence: T1 sequence with E39A, A45Y

ZαADAR1 Q186A = biological target: T5, ZαADAR1 Q186A (Homo sapiens, UniProt P55265 SEQ:1-67, Q186A); test: CD at 255 nm; rate comparable to wild type
T5 sequence: T1 sequence with A45Y, Q54A

[4] = biological target: T6, Zβ domain of ADAR1 (hZβADAR1) (Homo sapiens, UniProt P55265 SEQ:1-62); test: CD at 255 nm; no change over time
T6 sequence: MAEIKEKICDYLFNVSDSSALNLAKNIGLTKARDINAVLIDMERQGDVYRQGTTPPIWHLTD

[5] = biological target: T7, Zα domain of ADAR1 (hZαADAR1) (Homo sapiens, UniProt P55265 SEQ:1-67); test: CD at 255 nm; rapid, complete B-to-Z conversion; 90 uM bp DNA, 30 uM protein
T7 sequence: T1 sequence with A45Y

Molecule	Kd [1] [nM]	Kd [2] [nM]	Kd [3] [nM]	binding result (ZαADAR1 E171A)	binding result (ZαADAR1 Q186A)	binding result [4]	binding result [5]
partially brominated poly(dG-dC)	700	350	40				
B1				binds	binds	no binding	binds
